B3: Polymerase eta (Polη), purified human (enzyme, UniProt Q9Y253 1-713, looked up)
chain: MATGQDRVVALVDMDCFFVQVEQRQNPHLRNKPCAVVQYKSWKGGGIIAVSYEARAFGVTRSMWADDAKKLCPDLLLAQVRESRGKANLTKYREASVEVMEIMSRFAVIERASIDEAYVDLTSAVQERLQKLQGQPISADLLPSTYIEGLPQGPTTAEETVQKEGMRKQGLFQWLDSLQIDNLTSPDLQLTVGAVIVEEMRAAIERETGFQCSAGISHNKVLAKLACGLNKPNRQTLVSHGSVPQLFSQMPIRKIRSLGGKLGASVIEILGIEYMGELTQFTESQLQSHFGEKNGSWLYAMCRGIEHDPVKPRQLPKTIGCSKNFPGKTALATREQVQWWLLQLAQELEERLTKDRNDNDRVATQLVVSIRVQGDKRLSSLRRCCALTRYDAHKMSHDAFTVIKNCNTSGIQTEWSPPLTMLFLCATKFSASAPSSSTDITSFLSSDPSSLPKVPVTSSEAKTQGSGPAVTATKKATTSLESFFQKAAERQKVKEASLSSLTAPTQAPMSNSPSKPSLPFQTSQSTGTEPFFKQKSLLLKQKQLNNSSVSSPQQNPWSNCKALPNSLPTEYPGCVPVCEGVSKLEESSKATPAEMDLAHNSQSMHASSASKSVLEVTQKATPNPSLLAAEDQVPCEKCGSLVPVWDMPEHMDYHFALELQKSFLQPHSSNPQVVSAVSHQGKRNPKSPLACTNKRPRPEGMQTLESFFKPLTH

For test [1], the target named is B3. Briefly: pull-down.
Test [2] addresses B3. Kind of test: co-IP.
For test [3], the target named is T1, purified human PALB2 (Partner and localizer of BRCA2) (human, UniProt Q86YC2 1-1186).
T1 sequence (looked up): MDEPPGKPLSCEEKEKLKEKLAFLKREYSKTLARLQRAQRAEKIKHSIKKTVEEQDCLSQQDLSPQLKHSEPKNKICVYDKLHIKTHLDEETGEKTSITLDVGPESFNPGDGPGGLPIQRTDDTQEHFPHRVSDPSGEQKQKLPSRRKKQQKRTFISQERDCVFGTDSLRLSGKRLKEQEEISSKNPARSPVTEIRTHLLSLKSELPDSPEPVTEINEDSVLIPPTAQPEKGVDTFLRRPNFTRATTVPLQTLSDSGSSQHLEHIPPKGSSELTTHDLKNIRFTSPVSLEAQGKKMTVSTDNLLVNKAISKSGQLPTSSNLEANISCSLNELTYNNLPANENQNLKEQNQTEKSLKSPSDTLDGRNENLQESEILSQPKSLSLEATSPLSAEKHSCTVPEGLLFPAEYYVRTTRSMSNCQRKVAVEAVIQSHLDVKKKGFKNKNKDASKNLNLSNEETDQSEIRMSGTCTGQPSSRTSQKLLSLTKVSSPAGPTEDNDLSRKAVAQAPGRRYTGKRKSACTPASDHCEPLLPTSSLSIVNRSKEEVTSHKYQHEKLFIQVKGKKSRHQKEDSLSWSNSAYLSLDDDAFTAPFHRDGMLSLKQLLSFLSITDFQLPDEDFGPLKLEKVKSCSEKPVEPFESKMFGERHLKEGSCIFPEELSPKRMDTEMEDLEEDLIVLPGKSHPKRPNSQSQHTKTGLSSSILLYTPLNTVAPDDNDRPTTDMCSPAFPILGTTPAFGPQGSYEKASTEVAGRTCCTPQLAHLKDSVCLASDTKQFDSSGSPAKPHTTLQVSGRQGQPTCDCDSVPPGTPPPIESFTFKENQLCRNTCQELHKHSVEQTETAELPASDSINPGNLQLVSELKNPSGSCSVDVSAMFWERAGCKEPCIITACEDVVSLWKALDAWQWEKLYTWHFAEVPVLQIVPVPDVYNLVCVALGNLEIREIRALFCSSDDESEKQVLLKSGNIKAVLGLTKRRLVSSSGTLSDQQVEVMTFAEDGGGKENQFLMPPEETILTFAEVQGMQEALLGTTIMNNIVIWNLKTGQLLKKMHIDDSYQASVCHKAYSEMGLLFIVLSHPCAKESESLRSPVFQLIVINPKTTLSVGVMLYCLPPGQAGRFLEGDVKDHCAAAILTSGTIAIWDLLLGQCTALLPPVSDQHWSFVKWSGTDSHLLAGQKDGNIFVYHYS
Briefly: co-IP.

B1: GST-PALB2 WD40 domain (residues 853–1186) (domain or fragment, human, UniProt Q86YC2 853-1186, looked up)
chain: GNLQLVSELKNPSGSCSVDVSAMFWERAGCKEPCIITACEDVVSLWKALDAWQWEKLYTWHFAEVPVLQIVPVPDVYNLVCVALGNLEIREIRALFCSSDDESEKQVLLKSGNIKAVLGLTKRRLVSSSGTLSDQQVEVMTFAEDGGGKENQFLMPPEETILTFAEVQGMQEALLGTTIMNNIVIWNLKTGQLLKKMHIDDSYQASVCHKAYSEMGLLFIVLSHPCAKESESLRSPVFQLIVINPKTTLSVGVMLYCLPPGQAGRFLEGDVKDHCAAAILTSGTIAIWDLLLGQCTALLPPVSDQHWSFVKWSGTDSHLLAGQKDGNIFVYHYS
B1: in test [1], the binding result is “binds”.

B2: GST-BRCA2 truncation 4 (residues 1338–1781) (domain or fragment, human, UniProt P51587 1338-1781, looked up)
chain: GSDSSKNDTVCIHKDETDLLFTDQHNICLKLSGQFMKEGNTQIKEDLSDLTFLEVAKAQEACHGNTSNKEQLTATKTEQNIKDFETSDTFFQTASGKNISVAKESFNKIVNFFDQKPEELHNFSLNSELHSDIRKNKMDILSYEETDIVKHKILKESVPVGTGNQLVTFQGQPERDEKIKEPTLLGFHTASGKKVKIAKESLDKVKNLFDEKEQGTSEITSFSHQWAKTLKYREACKDLELACETIEITAAPKCKEMQNSLNNDKNLVSIETVVPPKLLSDNLCRQTENLKTSKSIFLKVKVHENVEKETAKSPATCYTNQSPYSVIENSALAFYTSCSRKTSVSQTSLLEAKKWLREGIFDGQPERINTADYVGNYLYENNSNSTIAENDKNHLSEKQDTYLSNSSMSNSYSYHSDEVYNDSGYLSKNKLDSGIEPVLKNVED
Consider B2, for which, in test [2], the binding result is on record as “binds”.

As to B3, the binding result in test [3] is given as “binds”.
